# Data: IntAct's records for PubMed 18075593
# Target: cry1_mouse Cry1 (UniProt P97784)
# Sequence (P97784 whole entry): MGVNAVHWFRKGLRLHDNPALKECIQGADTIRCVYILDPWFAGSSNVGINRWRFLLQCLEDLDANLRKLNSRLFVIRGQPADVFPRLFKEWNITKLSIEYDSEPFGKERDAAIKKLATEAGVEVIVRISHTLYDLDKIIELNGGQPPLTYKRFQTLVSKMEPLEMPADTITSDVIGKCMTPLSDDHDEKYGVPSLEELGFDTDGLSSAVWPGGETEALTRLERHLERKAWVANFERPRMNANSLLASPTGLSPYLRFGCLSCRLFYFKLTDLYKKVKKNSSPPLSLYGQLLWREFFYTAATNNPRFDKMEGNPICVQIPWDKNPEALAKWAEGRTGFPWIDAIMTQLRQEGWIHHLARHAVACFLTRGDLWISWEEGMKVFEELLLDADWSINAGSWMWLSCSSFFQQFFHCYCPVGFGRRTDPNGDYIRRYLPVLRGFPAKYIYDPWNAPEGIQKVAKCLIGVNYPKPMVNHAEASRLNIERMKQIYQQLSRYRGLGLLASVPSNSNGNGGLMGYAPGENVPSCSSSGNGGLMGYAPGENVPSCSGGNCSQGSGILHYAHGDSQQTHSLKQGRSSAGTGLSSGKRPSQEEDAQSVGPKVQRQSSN
# Chain of Basic helix-loop-helix ARNT-like protein 1 (Mus musculus), Q9WTL8-2 K537R (Q9WTL8 other isoform, or with tags, fused parts or gaps K537R): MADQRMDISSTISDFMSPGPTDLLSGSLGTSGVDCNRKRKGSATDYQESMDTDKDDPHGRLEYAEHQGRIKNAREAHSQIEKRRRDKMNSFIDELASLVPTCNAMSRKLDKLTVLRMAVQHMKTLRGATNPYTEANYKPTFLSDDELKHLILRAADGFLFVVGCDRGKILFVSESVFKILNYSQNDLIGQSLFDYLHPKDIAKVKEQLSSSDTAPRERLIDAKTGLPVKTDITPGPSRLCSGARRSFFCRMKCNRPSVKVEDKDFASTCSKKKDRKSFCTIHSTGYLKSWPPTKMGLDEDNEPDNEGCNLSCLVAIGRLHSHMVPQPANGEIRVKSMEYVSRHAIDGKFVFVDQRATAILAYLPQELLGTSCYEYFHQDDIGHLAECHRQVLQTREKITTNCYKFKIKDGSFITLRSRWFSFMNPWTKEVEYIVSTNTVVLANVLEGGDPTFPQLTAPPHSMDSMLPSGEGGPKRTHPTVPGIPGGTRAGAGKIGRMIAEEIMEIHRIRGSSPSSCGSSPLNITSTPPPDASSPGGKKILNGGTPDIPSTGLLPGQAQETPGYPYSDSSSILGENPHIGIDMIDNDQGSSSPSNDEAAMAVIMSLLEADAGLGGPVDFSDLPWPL
substance,measurement,value
"Basic helix-loop-helix ARNT-like protein 1 (Mus musculus), Q9WTL8-2 K537R",effect of a mutation on the interaction,decreasing interaction strength
